From article doi:10.1101/2024.07.16.603699 (bioRxiv, 2024) come the findings set out here.

First the molecules themselves.
T1: Saccharolobus solfataricus ribosomal protein uS3 (S. solfataricus (endogenous in the …, UniProt Q9UXA0 1-229))
T1 sequence (looked up): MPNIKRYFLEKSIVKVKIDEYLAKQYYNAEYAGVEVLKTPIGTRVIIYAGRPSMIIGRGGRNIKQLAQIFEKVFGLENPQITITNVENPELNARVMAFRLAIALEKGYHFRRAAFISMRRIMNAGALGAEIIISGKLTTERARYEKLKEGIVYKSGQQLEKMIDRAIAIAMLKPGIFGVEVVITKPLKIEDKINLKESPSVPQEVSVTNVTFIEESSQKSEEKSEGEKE

T2: Saccharolobus solfataricus ribosomal protein uS13 (S. solfataricus (endogenous in the …, UniProt P95986 1-165))
T2 sequence (looked up): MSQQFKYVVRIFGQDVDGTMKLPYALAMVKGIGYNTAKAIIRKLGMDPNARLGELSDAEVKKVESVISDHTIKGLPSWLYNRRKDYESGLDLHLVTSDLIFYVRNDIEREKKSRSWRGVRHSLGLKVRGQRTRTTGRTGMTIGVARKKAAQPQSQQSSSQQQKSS

B1: Saccharolobus solfataricus ribosomal protein uS14 (natural protein, UniProt Q97ZQ5 1-54, looked up)
chain: MGKYKPPAERKYGKGVQSCQRCGSKDSVIQKYGIYLCRQCFREVAYELGFRKYW
B2: Saccharolobus solfataricus ribosomal protein aS34 (natural protein, UniProt Q97ZK4 1-72, looked up)
chain: MSIKNRGSNAYGHLGWLTVYCRICNRKLIIGTDILYKCPKCEKKYSAYFCEADKRGLKGKCPYCGTELVPIL
B3: Saccharolobus solfataricus ribosomal protein eS25 (natural protein, UniProt Q97ZZ6 1-110, looked up)
chain: MGGASKKPISTMEKRLKKEAEKQQKAEEKKKGPSKTGKEIISRAVTIDEETKKKVLDEIKKESIITPYALATKSGISISVARKILKELENQNVVKLYSKNRRLEIYIAAS

Common to all, as to assay: cryo-EM structure
For experiment [1], the target named is B2.
The target of experiment [2] is T1, Saccharolobus solfataricus ribosomal ….
Experiment [3] has as its target T2, Saccharolobus solfataricus ribosomal ….

Regarding B1, in experiment [1], the binding result is recorded as “binds”.

In the case of B2, in experiment [2], the binding result is given as “binds”.

Turning to B3, the binding result in experiment [3] is recorded as “binds”.
